In article PMC6345502, “Vancomycin does not affect the enzymatic activities of purified VanSA” (PLoS ONE, 2019):
Values joined by “and” are separate entries in the source; they are usually repeats but may differ in a detail not shown here. Equal entries are not always repeated.

T1: cytosolic domain of VanSA (enterococci, UniProt Q06240 98-384)
T1 construct: two residues at the N-terminus contributed by the vector pETCH; VanS of type-A vancomycin resistance in enterococci, Uniprot Q06240, residues 98-384, beginning at K98 just after the second predicted transmembrane helix; also called cVanSA; Cytosolic VanSA; source: E. coli BL21(DE3), purified (IMAC, HiTrap Q, S-300)
T1 sequence: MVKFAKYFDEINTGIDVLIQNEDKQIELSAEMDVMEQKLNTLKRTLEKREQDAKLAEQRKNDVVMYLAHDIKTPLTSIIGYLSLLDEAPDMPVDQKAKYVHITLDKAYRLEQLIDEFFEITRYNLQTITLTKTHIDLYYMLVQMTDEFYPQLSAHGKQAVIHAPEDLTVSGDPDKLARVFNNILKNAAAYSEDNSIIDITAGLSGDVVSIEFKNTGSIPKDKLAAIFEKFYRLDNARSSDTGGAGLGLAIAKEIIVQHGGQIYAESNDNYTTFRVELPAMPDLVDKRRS

T2: Phospho-cytosolic VanSA (enterococci, UniProt Q06240 98-384, phospho-histidine at the conserved histidine (autophosphorylated; not expected to be fully phosphorylated))
T2 construct: two residues at the N-terminus contributed by the vector pETCH; VanS of type-A vancomycin resistance in enterococci, Uniprot Q06240, residues 98-384, beginning at K98; also called autophosphorylated cVanSA; phospho-cVanSA
T2 sequence: T1 sequence

B1: fluorescently-labeled VanRA (natural protein, enterococci)
chain: CMSDKILIVDDEHEIADLVELYLKNENYTVFKYYTAKEALECIDKSEIDLAILDIMLPGTSGLTICQKIRDKHTYPIIMLTGKDTEVDKITGLTIGADDYITKPFRPLELIARVKAQLRRYKKFSGVKEQNENVIVHSGLVINVNTHECYLNEKQLSLTPTEFSILRILCENKGNVVSSELLFHEIWGDEYFSKSNNTITVHIRHLREKMNDTIDNPKYIKTVWGVGYKIEK
modifications: fluorescein maleimide on the cysteine introduced at the N-terminus
notes: additional cysteine at the N-terminus, introduced by site-directed mutagenesis instead of the glycine of the wild-type construct; VanR response regulator of type-A vancomycin resistance in enterococci, Uniprot Q06239; Expression and purification of the cysteine mutant are not described; After labelling it was passed over Sephacryl S-100 HR; also called fluorescein-labeled VanRA; …
B2: full-length VanSA (enzyme)
chain: MVIKLKNKKNDYSKLERKLYMYIVAIVVVAIVFVLYIRSMIRGKLGDWILSILENKYDLNHLDAMKLYQYSIRNNIDIFIYVAIVISILILCRVMLSKFAKYFDEINTGIDVLIQNEDKQIELSAEMDVMEQKLNTLKRTLEKREQDAKLAEQRKNDVVMYLAHDIKTPLTSIIGYLSLLDEAPDMPVDQKAKYVHITLDKAYRLEQLIDEFFEITRYNLQTITLTKTHIDLYYMLVQMTDEFYPQLSAHGKQAVIHAPEDLTVSGDPDKLARVFNNILKNAAAYSEDNSIIDITAGLSGDVVSIEFKNTGSIPKDKLAAIFEKFYRLDNARSSDTGGAGLGLAIAKEIIVQHGGQIYAESNDNYTTFRVELPAMPDLVDKRRS
notes: VanS sensor histidine kinase of type-A vancomycin resistance in enterococci, Uniprot Q06240, full length; the construct has 392 amino acids including the C-terminal PG-6xHis tag; Membrane protein; kept in 10 mM LDAO for SEC and storage and in 9 mM C12E8 for the SPR injections; source: E. coli BL21(DE3), purified from the membrane fraction (DDM extraction, IMAC, Sephacryl S-300 in LDAO)
B3: 1D4-tagged VanRA (natural protein)
chain: MSDKILIVDDEHEIADLVELYLKNENYTVFKYYTAKEALECIDKSEIDLAILDIMLPGTSGLTICQKIRDKHTYPIIMLTGKDTEVDKITGLTIGADDYITKPFRPLELIARVKAQLRRYKKFSGVKEQNENVIVHSGLVINVNTHECYLNEKQLSLTPTEFSILRILCENKGNVVSSELLFHEIWGDEYFSKSNNTITVHIRHLREKMNDTIDNPKYIKTVWGVGYKIEK
notes: VanR response regulator of type-A vancomycin resistance in enterococci, Uniprot Q06239; the 1D4 tag and linker add 13 residues to the wild-type VanRA construct; Expression and purification of this tagged construct are not described; also called tagged VanRA construct; immobilized VanRA

Tests used:
[1] = biological target: T1, cytosolic domain of VanSA; assay: fluorescence polarisation; fluorescence anisotropy; cVanSA titrated into 40 nM fluorescein-labeled VanRA; 50 mM Tris pH 7.8, 100 mM NaCl, 5 mM MgCl2, 0.05% Tween-20; room temperature; conditions: both partners purified
[2] = biological target: the molecule itself; assay: SEC; Sephacryl S-300 in 50 mM Tris pH 7.8, 500 mM NaCl, 5 mM MgCl2, 10 mM LDAO; elution compared with the 80 kDa apotransferrin standard
[3] = biological target: B2; assay: SPR; 1D4-tagged VanRA captured on Rho1D4 antibody on a GLC chip; full-length VanSA as analyte in running buffer + 9 mM C12E8; 25°C; 50 mM BIS-TRIS pH 6.0, 150 mM NaCl, 10 mM MgCl2, 0.005% Tween 20; one-site model fitted to equilibrium responses; concentrations for dimers; conditions: both partners purified
[4] = biological target: T1, cytosolic domain of VanSA; assay: SPR; 1D4-tagged VanRA captured on Rho1D4 antibody amine-coupled to a GLC chip (ProteOn XPR36); cytosolic histidine kinase as analyte; 25°C; 50 mM BIS-TRIS pH 6.0, 150 mM NaCl, 10 mM MgCl2, 0.005% Tween 20; one-site model fitted to equilibrium responses; concentrations for dimers; conditions: both partners purified
[5] = biological target: T2, Phospho-cytosolic VanSA; assay: as above; conditions: both partners purified

B1
Kd [1]: 200 nM and 100 to 1000 nM

B2
binding result [2]: binds

B3
Kd [3]: 1900 ± 700 nM
Kd [4]: 6.8 ± 1.4 µM
Kd [5]: 2500 ± 800 nM
